Residue numbers refer to the chain shown, from its start.
B1: PR002037 (antibody, human IgG1, kappa, V domains shown)
VH: QVQLVQSGAEVKKPGSSMRVSCKASEDTFSSYAISWVRQAPGQGLEWMGGTAPIFGTTNYAQKFQGRVTITADKSTSTAYMELSSLRSEDTAVYYCARGGPYFDYWGQGTLVTVSS
VL: EIVMTQSPASLSVSPGERATLSCRASQSVSSNLAWYQQKPGQAPRLLIYGASTRATGIPARVSGGGSGTEFTLTISSLQSEDFAVYCCQQYKNWPFTFGPGTKLEIKR
notes: also called 1025_B-1H11 clone
B2: PR002410 (antibody, human IgG1, kappa, V domains shown)
VH: B1 VH
VL: B1 VL with C87Y
notes: anti-B7-H4 H2L2 recombinant fully human antibody, human IgG1 / kappa; also called PR002037 variant
B3: PR001476 (antibody, human IgG1, kappa, V domains shown)
VH: QVQLVESGGGVVQPGRSLRLSCAASGFTFRSFGMHWVRQAPGKGLEWVAVISYDGSNEYYADSVKGRFIISRDNSKDTLYLQMNSLRAGDTAVYYCAKGGGLRWYFAYWGQGTLVTVSS
VL: EIVMTQSPATLSVSPGERATLSCRASQSISSNLGWYQQKPGQAPRLLIYGASTRATGIPARFSGSGSGTEFTLTISSLQSEDFAVYYCQQYNSWPPLTFGGGTKVEIKR
notes: anti-B7-H4 H2L2 recombinant fully human antibody, human IgG1 / kappa; also called 80C8-2E9 clone
B4: PR001763 (antibody, human IgG1, V domains shown)
VH: EVQLLESGGGLVQPGGSLRLSCTASGFTFSNYAMSWVRQAPEKGLEWVSSISGSGGSTFYADSVKGRFTISRDNSKNTLYLQMNRLTAEDTAVYYCAKEGSNGTDDYHYDIDVWGQGTTVTVSS
notes: anti-4-1BB HCAb, human IgG1 Fc
B5: PR001767 (antibody, human IgG1, V domains shown)
VH: EVQLVETGGGLIQPGGSLRLSCAASGFTVSSNYMSWVRQAPGKGLEWVSVIYSDGSTYYADSVKGRFTISRDNSKNTLYLQMNSLRAEDTAVYYCARDRYYGSGNYPTAYYGMDVRGQGTTVTVSS
notes: as for B4
B6: PR001764 (antibody, human IgG1, V domains shown)
VH: EVQLLESGGGLVQPGGSLRLSCAASGFTFSSYAMSWVRQAPEKGLEWVSAISGGGGSTYYADSVKGRFTISRDNSKNTLYLQMDSLKAEDTAVYYCAKEGTTETDDYHYNMDVWGQGTTVTVSS
notes: as for B4
B7: PR001768 (antibody, human IgG1, V domains shown)
VH: EVQLLESGGGLVQPGGSLRLSCAASGFTFSNYAMTWVRQAPGKGLEWVSSISGSGDSTYYADSVKGRFTISRDNSKNTLYLQMNSLRAEDTAVYYCAKEGTGTTSDYYYNVDVWGQGTTVTVSS
notes: as for B4
B8: PR001758 (antibody, human IgG1, V domains shown)
VH: EVQLLESGGGLVQLGGSLRLSCAASGFTFSRYAMTWVRQAPEKGLEWVSSISGSGDDTYYGDSVKGRFTISRDNSQNTVYLQMNSLRAEDTAVYFCAKEKAGTTGDYYYNVDVWGQGTTVTVSS
notes: anti-4-1BB fully human heavy-chain-only antibody (HCAb): VH fused to human IgG1 Fc

Legend:
human B7-H4 = molecular target: T1, human B7-H4 (human, UniProt Q7Z7D3 25-282); experiment: FACS, SK-BR-3 cells [A]
T1 construct: whole, on cells; also called VTCN1; SK-BR-3 cell line highly expressing B7-H4
T1 sequence (looked up): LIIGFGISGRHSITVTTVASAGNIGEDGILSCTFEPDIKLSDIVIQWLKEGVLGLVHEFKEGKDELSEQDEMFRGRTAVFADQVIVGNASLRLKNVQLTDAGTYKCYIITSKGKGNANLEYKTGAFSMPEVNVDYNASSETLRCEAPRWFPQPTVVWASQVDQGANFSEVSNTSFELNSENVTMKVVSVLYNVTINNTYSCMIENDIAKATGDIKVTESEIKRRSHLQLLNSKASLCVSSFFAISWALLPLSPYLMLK
Procedure: (§1) This example is intended to investigate the in vitro binding activity of anti-human B7-H4 H2L2 monoclonal antibody to human/cynomolgus monkey/mouse B7-H4. Antibody binding experiments at the cellular level were conducted using a CHO-K1 cell strain overexpressing cynomolgus monkey B7-H4 (CHO-K1/cyno B7-H4, prepared in-house by Harbour Biomed), a CHO-K1 cell strain overexpressing mouse B7-H4 (CHO-K1/m B7-H4, prepared in-house by Harbour Biomed) and an SK-BR-3 cell line highly expressing human B7-H4 (ATCC® HTB-30). Briefly, the CHO-K1/cyno B7-H4 cells, CHO-K1/m B7-H4 cells or SK-BR-3 cells were digested and resuspended with PBS containing 2% BSA. The cell density was adjusted to 1×10⁶ cells/mL. […] The cells were incubated at 4° C. for 2 h away from light. Thereafter, the cells in each well were rinsed twice with 100 μL of pre-cooled PBS containing 2% BSA, and centrifuged at 500 g at 4° C. for 5 min, and then the supernatant was discarded. […] The plate was incubated away from light at 4° C. for 1 h. The cells in each well were rinsed twice with 100 μL of pre-cooled PBS containing 2% BSA, and centrifuged at 500 g at 4° C. for 5 min, and then the supernatant was discarded. Finally, the cells in each well were resuspended in 200 μL of pre-cooled PBS containing 2% BSA, and the fluorescence signal values were read using an ACEA Novocyte3000 flow cytometer.

mouse B7-H4 = molecular target: T2, mouse B7-H4 (mouse, UniProt Q7TSP5 25-257); experiment: FACS, CHO-K1/m B7H4 cells [C]
T2 construct: whole, on cells; also called CHO-K1/m B7-H4; CHO-K1/mB7-H4
T2 sequence (looked up): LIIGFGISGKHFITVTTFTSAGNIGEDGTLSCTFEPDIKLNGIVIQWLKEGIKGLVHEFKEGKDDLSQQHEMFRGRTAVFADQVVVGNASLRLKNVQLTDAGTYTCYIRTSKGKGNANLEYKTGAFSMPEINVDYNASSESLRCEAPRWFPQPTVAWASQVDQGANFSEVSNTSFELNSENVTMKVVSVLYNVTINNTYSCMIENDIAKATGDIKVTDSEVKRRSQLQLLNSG
Procedure: as §1

cynomolgus monkey B7-H4 = molecular target: T3, cynomolgus monkey B7-H4 (cynomolgus monkey, UniProt A0A2K5U6P5 25-282); experiment: FACS, CHO-K1/cyno B7H4 cells [B]
T3 construct: whole, on cells; also called CHO-K1/cyno B7-H4; CHO-K1/cynoB7H4
T3 sequence: T1 sequence (looked up) with L53I, F242L, S252A
Procedure: as §1

human 4-1BB [1] = molecular target: T4, human 4-1BB (human, UniProt Q07011 24-255); experiment: FACS, CHO-K1/hu 4-1BB cells [A]
T4 construct: whole, on cells; also called CD137; TNFRSF9
T4 sequence (Q07011 24-255): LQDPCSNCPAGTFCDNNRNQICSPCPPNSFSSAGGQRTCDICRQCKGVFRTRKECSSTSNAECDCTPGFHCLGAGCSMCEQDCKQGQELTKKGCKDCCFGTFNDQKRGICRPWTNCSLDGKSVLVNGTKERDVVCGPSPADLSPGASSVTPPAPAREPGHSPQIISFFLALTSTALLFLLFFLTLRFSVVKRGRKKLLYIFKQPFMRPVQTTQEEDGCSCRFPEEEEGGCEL
Procedure: (§2) This example is intended to investigate the in vitro binding activity of anti-human 4-1BB HCAb and H2L2 monoclonal antibodies to human and cynomolgus monkey 4-1BB. Antibody binding experiments at the cellular level were conducted using a CHO-K1 cell strain overexpressing human 4-1BB (CHO-K1-hu 4-1BB, Genescript) and a CHO-K1 cell strain overexpressing cynomolgus monkey 4-1BB (CHO-K1-cyno 4-1BB, Genescript). Briefly, the CHO-K1-hu 4-1BB and CHO-K1-cyno 4-1BB cells were digested and resuspended in DMEM complete medium, and the cell density was adjusted to 1×10⁶ cells/mL. […] The cells were incubated at 4° C. for 1 h away from light. Thereafter, the cells in each well were rinsed twice with 100 μL of pre-cooled PBS, and centrifuged at 500 g at 4° C. for 5 min, and then the supernatant was discarded. […] The plate was incubated away from light at 4° C. for 30 min. The cells in each well were rinsed twice with 100 μL of pre-cooled PBS, and centrifuged at 500 g at 4° C. for 5 min, and then the supernatant was discarded. Finally, the cells in each well were resuspended in 200 μL of pre-cooled PBS, and the fluorescence signal values were read using a BD FACS CANTOII.

cynomolgus monkey 4-1BB [2] = molecular target: T5, cynomolgus monkey 4-1BB (cynomolgus monkey); experiment: FACS, CHO-K1/cyno 4-1BB cells [B]
T5 construct: whole, on cells; also called CHO-K1-cyno 4-1BB; CHO-K1/cyno4-1BB
Procedure: as §2

human 4-1BB [3] = molecular target: T4, human 4-1BB; experiment: FACS, CHO-K1/hu 4-1BB cells [B]
Procedure: as §2

cynomolgus monkey 4-1BB [4] = molecular target: T5, cynomolgus monkey 4-1BB; experiment: FACS, CHO-K1/cyno 4-1BB cells [C]
Procedure: as §2

cynomolgus monkey 4-1BB [5] = molecular target: T5, cynomolgus monkey 4-1BB; experiment: FACS, CHO-K1/cyno 4-1BB cells [A]
Procedure: as §2

| Binder | EC50 (human B7-H4) [nM] | Maximum MFI (human B7-H4) [MFI] | EC50 (mouse B7-H4) [nM] | Maximum MFI (mouse B7-H4) [MFI] | EC50 (cynomolgus monkey B7-H4) [nM] | Maximum MFI (cynomolgus monkey B7-H4) [MFI] | Maximum MFI (cynomolgus monkey 4-1BB [2]) [MFI] | EC50 (human 4-1BB [3]) [nM] | Maximum MFI (human 4-1BB [3]) [MFI] | other results |
| --- | --- | --- | --- | --- | --- | --- | --- | --- | --- | --- |
| B1 | 2.22 | 257000 | 2.57 | 1.69e+06 | 2.38 | 1.92e+06 | – | – | – | – |
| B2 | 1.87 | 245000 | 2.38 | 1.55e+06 | 2.08 | 1.86e+06 | – | – | – | – |
| B3 | 0.367 | 239000 | 3.61 | 353000 | 1.1 | 1.82e+06 | – | – | – | – |
| B4 | – | – | – | – | – | – | 57700 | – | – | EC50 (human 4-1BB [1]): 0.616 nM; Maximum MFI (human 4-1BB [1]): 1600 MFI |
| B5 | – | – | – | – | – | – | 68400 | 5.87 | 1450 | EC50 (cynomolgus monkey 4-1BB [2]): 25 nM |
| B6 | – | – | – | – | – | – | 77300 | 0.249 | 1560 | EC50 (cynomolgus monkey 4-1BB [2]): 5.33 nM |
| B7 | – | – | – | – | – | – | – | 0.846 | 1550 | EC50 (cynomolgus monkey 4-1BB [4]): 6.97 nM; Maximum MFI (cynomolgus monkey 4-1BB [4]): 62200 MFI |
| B8 | – | – | – | – | – | – | – | – | – | EC50 (human 4-1BB [1]): 0.212 nM; Maximum MFI (human 4-1BB [1]): 1640 MFI; EC50 (cynomolgus monkey 4-1BB [5]): 0.575 nM; Maximum MFI (cynomolgus monkey 4-1BB [5]): 11200 MFI |

— US20230235090A1 (HARBOUR BIOMED US, published 2023)
